In patent US11505576B2, “Polypeptides based on a scaffold” (AFFIBODY AB, priority 2018, dated 2022):

Tests used:
[1] = Circular dichroism spectroscopy analysis (CD spectra, variable temperature measurement, refolding); assay type: physicochemical; settings: for α-helical content / ability to fold into an α-helical structure: CD spectrum at 20° C.
Method in brief: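 Y variants at 0.5 mg/ml in PBS were scanned from 250 to 195 nm at 20° C. in a 1 mm cell. Tm came from the 221 nm signal during heating from 20 to 90° C. at 5° C./min, and a second 20° C. spectrum after heating assessed refolding. Selected IL-6 binders were also recorded at 60, 70, 80 and 90° C.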

IL-6 = molecular target: T1, IL-6 (Homo sapiens, UniProt P05231); test: Kinetic analysis using surface plasmon resonance (Biacore T200), immobilized IL-6; assay type: binding
T1 construct: purchased R&D Systems 206-IL-200/CF
T1 sequence (P05231 30-212): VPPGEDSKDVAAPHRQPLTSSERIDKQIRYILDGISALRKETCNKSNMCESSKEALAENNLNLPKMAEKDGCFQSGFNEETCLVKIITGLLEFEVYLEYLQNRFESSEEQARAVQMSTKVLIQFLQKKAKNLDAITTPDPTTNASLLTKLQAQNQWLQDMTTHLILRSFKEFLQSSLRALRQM
Procedure: (§1) Kinetic constants (ka and kd) and affinities (KD) were determined for His6-tagged Y variants using a Biacore T200 instrument (GE Healthcare). Target proteins C4, IL-6 and insulin, respectively, were immobilized in separate flow cells on the carboxylated dextran layer of different CM5 chip surfaces (GE Healthcare). Immobilization was performed using amine coupling chemistry according to the manufacturer's protocol and PBS pH 7.4 supplemented with 0.1 Tween20 (PBST 0.1%) as running buffer. The ligand immobilization levels on the surfaces were 3280-8830 RU for C4, 495-1184 RU for IL-6, and 270-282 RU for insulin. One flow cell surface on each chip was activated and deactivated for use as blank during analyte injections. In the kinetic experiment, PBST 0.1% was used as running buffer at a flow rate of 30 μl/min. The analytes, i.e. Y variants, were each diluted in PBST 0.1 buffer at concentrations of 1000, 500, 100, 50 and 10 nM and injected for 5 min, followed by dissociation in running buffer for 3 min. After dissociation, the surfaces were regenerated with one injection of 30 μl 10 mM HCl. Kinetic constants were calculated from the sensorgrams using the Langmuir 1:1 model of Biacore T200 Evaluation software 2.0 (GE Healthcare).
(§2) Produced Y variants were subjected to CD and SPR analyses according to the methods described in Example 1.
(§3) Produced Y variants were subjected to CD and SPR analyses according to the methods described in Example 1. In addition, CD spectra of selected IL-6 binding variants were also recorded at 60, 70, 80 and 90° C.
The Y variants were cloned, produced and characterized according to the general methods described in Example 1. Produced Y variants with point mutations were subjected to CD and SPR analyses as described in Example 1. In addition, CD spectra of the IL-6 binding variants were also recorded at 60, 70, 80 and 90° C.

[2] = Fraction of soluble product on expression in E. coli, estimated from SDS-PAGE; assay type: physicochemical; settings: MGSSHHHHHHGSS-[Y#####]-A; for Estimated soluble fraction: Table 7, Ylib002Naive.I selection; for Est soluble fraction: Table 9, mutation study 5
Procedure: E. coli T7E2 cells were transformed with plasmids containing the gene fragment of each respective Y variant. The resulting recombinant strains were generally cultivated in media supplemented with 50 μg/ml kanamycin at 30-37° C. in 50 ml scale using the EnPresso protocol (Enpresso GmbH). In order to induce protein expression, isopropyl-β-D-1-thiogalactopyranoside (IPTG) was added to a final concentration of 0.5 mM at an optical density at 600 nm (OD600) of approximately 10. After induction, the cultures were incubated for 16 h. The cells were harvested by centrifugation. Alternatively, the culture was performed at 37° C. in 980 ml of TSB-YE medium (tryptic soy broth 30 g/l supplemented with yeast extract 5 g/l) supplemented with 50 μg/ml kanamycin, and protein expression induced with 0.2 mM IPTG at OD600=2, followed by incubation for 5 h before harvesting of the cells by centrifugation. The total yield as well as the fraction of soluble and insoluble product of the respective Y variant was estimated based on SDS-PAGE analysis.

C4 = test: Kinetic analysis using surface plasmon resonance (Biacore T200), immobilized C4; assay type: binding; settings: Table 7; MGSSHHHHHHGSS-[Y#####]-A
Procedure: as §1, §2
The Y variants were cloned, produced and characterized according to the general methods described in Example 1. Produced Y variants with point mutations and/or N-terminal or C-terminal extensions were subjected to CD and SPR analyses as described in Example 1.
as §3

insulin = molecular target: T2, insulin (Homo sapiens, UniProt P01308); test: Kinetic analysis using surface plasmon resonance (Biacore T200), immobilized insulin; assay type: binding; settings: Table 9, mutation study 5; MGSSHHHHHHGSS-[Y#####]-A
T2 construct: purchased Roche 1376497
T2 sequence (P01308 25-54 limits assumed): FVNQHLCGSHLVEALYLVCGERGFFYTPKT
T2 sequence (P01308 90-110 limits assumed): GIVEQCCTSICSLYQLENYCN
Method in brief: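 His6-tagged Y variants injected at 10–1000 nM over amine-coupled insulin (270–282 RU) in PBST 0.1%, pH 7.4, at 30 μl/min. Association 5 min, dissociation 3 min. ka, kd and KD derived from a Langmuir 1:1 fit.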

[3] = Table 2, Ylib001Naive.I selection, MGSSHHHHHHGSS-[Y#####]-ASGSVD, 0.5 mg/ml in PBS, 221 nm, 20-90° C.
[4] = Table 2, His6-tagged Y variant, MGSSHHHHHHGSS-[Y#####]-ASGSVD
[5] = Table 7, MGSSHHHHHHGSS-[Y#####]-A
[6] = Table 9, mutation study 5, MGSSHHHHHHGSS-[Y#####]-A

| Kd (IL-6; [5]) [nM] | ka (IL-6; [5]) [M⁻¹ s⁻¹] | kd (IL-6; [5]) [s⁻¹] | Kd (IL-6; [6]) [nM] | ka (IL-6; [6]) [M⁻¹ s⁻¹] | kd (IL-6; [6]) [s⁻¹] | Substance | Estimated soluble fraction [2] [%] | Est soluble fraction [2] [%] | also measured |
| --- | --- | --- | --- | --- | --- | --- | --- | --- | --- |
| 120 | 14000 | 0.0017 | – | – | – | Y02374: IL-6 binding Y variant from Ylib002Naive.I, SEQ ID NO:72 (LAEAKEAAIAELDSKGVGAAEIKRIQAAELVEIVQLLKQAILAVLPA; Engineered IL-6 binding Y variant) | 100 | – | – |
| 61 | 90000 | 0.0055 | – | – | – | Y02444: IL-6 binding Y variant from Ylib002Naive.I, SEQ ID NO:75 (LAEAKEAAIAELDSKGVGAVEIKQIQEALLVEIVQLLKQAILAVLPA; Engineered IL-6 binding Y variant) | 100 | – | Structure at elevated temperature ([1]; CD spectra recorded at 60, 70, 80 and 90° C.): partial structure also at temperatures up to 90 °C |
| 160 | 11000 | 0.0017 | – | – | – | Y02447: IL-6 binding Y variant from Ylib002Naive.I, SEQ ID NO:76 (LAEAKEAAIAELDSKGVGAHGIKEIQDAILVEIVQLLKQAILAALPA; Engineered IL-6 binding Y variant) | 100 | – | – |
| – | – | – | 120 | 28000 | 0.0033 | Y02698: IL-6 binding Y variant, Y02444 with K15Y, SEQ ID NO:82 (LAEAKEAAIAELDSYGVGAVEIKQIQEALLVEIVQLLKQAILAVLPA; Engineered IL-6 binding Y variant) | – | 100 | – |
| – | – | – | 200 | 19000 | 0.0029 | Y02699: IL-6 binding Y variant, Y02444 with Q26E, SEQ ID NO:83 (LAEAKEAAIAELDSKGVGAVEIKQIEEALLVEIVQLLKQAILAVLPA; Engineered IL-6 binding Y variant) | – | 100 | – |
| – | – | – | 210 | 21000 | 0.0036 | Y02701: IL-6 binding Y variant, Y02415 with K15Y, SEQ ID NO:85 (LAEAKEAAIAELDSYGVGAGDIKDIQDALLVEIVQLLKQAILAVLPA; Engineered IL-6 binding Y variant) | – | 100 | – |

More lines, now with the values behind:

| Substance | Kd (IL-6; [5]) [nM] | ka (IL-6; [5]) [M⁻¹ s⁻¹] | kd (IL-6; [5]) [s⁻¹] | Kd (IL-6; [6]) [nM] | ka (IL-6; [6]) [M⁻¹ s⁻¹] | kd (IL-6; [6]) [s⁻¹] | Estimated soluble fraction [2] [%] | Est soluble fraction [2] [%] | also measured |
| --- | --- | --- | --- | --- | --- | --- | --- | --- | --- |
| Y00035: IL-6 binding Y variant from Ylib001Naive.I, SEQ ID NO:50 (LAEAKEAANAELDSYGVQANSIEAIEQGLFVEVVELLKELILAALP; Engineered IL-6 binding Y variant) | – | – | – | – | – | – | – | – | α-helical content / ability to fold into an α-helical structure [1]: limited ability; Tm [1, 3]: 60 °C; Kd (IL-6; [4]): 360 nM |
| Y00076: IL-6 binding Y variant from Ylib001Naive.I, SEQ ID NO:61 (LAEAKEAALAELDSKGIEEKSISEIEAGLWVEVVELLKESILAVLP; Engineered IL-6 binding Y variant) | – | – | – | – | – | – | – | – | α-helical content / ability to fold into an α-helical structure [1]: limited ability; Tm [1, 3]: 47 °C; Kd (IL-6; [4]): 430 nM |
| Y00792: C4 binding Y variant from Ylib002Naive.I, SEQ ID NO:32 (LAEAKEAAIAELDSKGVGADLIKKIQQASSVEGVQFWKQEILAQLPA; Engineered C4 binding Y variant) | – | – | – | – | – | – | 100 | – | Tm [1, 5]: 58 °C; Kd (C4): 62 nM; ka (C4): 27000 M⁻¹ s⁻¹; kd (C4): 0.0017 s⁻¹ |
| Y02415: IL-6 binding Y variant from Ylib002Naive.I, SEQ ID NO:74 (LAEAKEAAIAELDSKGVGAGDIKDIQDALLVEIVQLLKQAILAVLPA; Engineered IL-6 binding Y variant) | 160 | 9700 | 0.0015 | – | – | – | 100 | – | – |
| Y02465: IL-6 binding Y variant from Ylib002Naive.I, SEQ ID NO:78 (LAEAKEAAIAELDSKGVGANHIKAIQHAQFVEIVQLLKQAILAVLPA; Engineered IL-6 binding Y variant) | 270 | 7500 | 0.0021 | – | – | – | 100 | – | – |
| Y02495: IL-6 binding Y variant from Ylib002Naive.I, SEQ ID NO:79 (LAEAKEAAIAELDSKGVGAEEIKEIQGAMLVEIVQLLKQAILAVLPA; Engineered IL-6 binding Y variant) | 240 | 7100 | 0.0017 | – | – | – | 100 | – | – |
| Y02697: IL-6 binding Y variant, Y02444 with I9L, SEQ ID NO:81 (LAEAKEAALAELDSKGVGAVEIKQIQEALLVEIVQLLKQAILAVLPA; Engineered IL-6 binding Y variant) | – | – | – | 150 | 50000 | 0.009 | – | 100 | – |
| Y02700: IL-6 binding Y variant, Y02415 with I9L, SEQ ID NO:84 (LAEAKEAALAELDSKGVGAGDIKDIQDALLVEIVQLLKQAILAVLPA; Engineered IL-6 binding Y variant) | – | – | – | 62 | 46000 | 0.0025 | – | 100 | – |
| Y02702: IL-6 binding Y variant, Y02415 with Q26E, SEQ ID NO:86 (LAEAKEAAIAELDSKGVGAGDIKDIEDALLVEIVQLLKQAILAVLPA; Engineered IL-6 binding Y variant) | – | – | – | 440 | 16000 | 0.007 | – | 100 | – |
| Y02703: IL-6 binding Y variant, Y02444 with K15Y Q26E, SEQ ID NO:87 (LAEAKEAAIAELDSYGVGAVEIKQIEEALLVEIVQLLKQAILAVLPA; Engineered IL-6 binding Y variant) | – | – | – | 120 | 21000 | 0.0025 | – | 100 | – |
| Y02715: insulin binding Y variant, Y00358 with K15Y Q26E, SEQ ID NO:155 (LAEAKEAAIAELDSYGVGAAKIKWIEDAKSVETVQFLKQAILAELPA; Engineered insulin binding Y variant) | – | – | – | – | – | – | – | 100 | Tm [1, 6]: 61 °C; Kd (insulin): 280 nM; ka (insulin): 6700 M⁻¹ s⁻¹; kd (insulin): 0.0019 s⁻¹ |
| Y02716: insulin binding Y variant, Y00301 with K15Y Q26E, SEQ ID NO:156 (LAEAKEAAIAELDSYGVGARQIKWIEQAKSVEVVQWLKQAILADLPA; Engineered insulin binding Y variant) | – | – | – | – | – | – | – | 100 | Tm [1, 6]: 58 °C; Kd (insulin): 7.6 nM; ka (insulin): 2.7e+07 M⁻¹ s⁻¹; kd (insulin): 0.21 s⁻¹ |
| Y02717: insulin binding Y variant, Y00310 with K15Y Q26E, SEQ ID NO:157 (LAEAKEAAIAELDSYGVGAYQIKFIEIAHTVEEVQLMKQAILADLPA; Engineered insulin binding Y variant) | – | – | – | – | – | – | – | 100 | Tm [1, 6]: 52 °C; Kd (insulin): 610 nM; ka (insulin): 33000 M⁻¹ s⁻¹; kd (insulin): 0.02 s⁻¹ |
